According to paper PMC10397247:
One block for each binder: values may come before it.

Tests used:
4H2859-bA = molecular target: T1, 4H2859-bA; assay: two-hybrid library CCNG1;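 further: natural log of median RNA to DNA barcode read ratio; higher means stronger binding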
T1 chain: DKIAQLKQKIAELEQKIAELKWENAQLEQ

4H2444-bA = molecular target: T2, 4H2444-bA; assay: two-hybrid library CCNG1;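 further: natural log of median RNA to DNA barcode read ratio; higher means stronger binding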
T2 chain: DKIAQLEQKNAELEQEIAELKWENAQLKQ

4H235-bA = molecular target: T3, 4H235-bA; assay: two-hybrid library CCNG1;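 further: natural log of median RNA to DNA barcode read ratio; higher means stronger binding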
T3 chain: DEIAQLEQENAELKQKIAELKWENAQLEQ

4H2438-bA = molecular target: T4, 4H2438-bA; assay: two-hybrid library CCNG1;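 further: natural log of median RNA to DNA barcode read ratio; higher means stronger binding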
T4 chain: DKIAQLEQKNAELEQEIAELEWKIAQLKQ

4H2233-bA = molecular target: T5, 4H2233-bA; assay: two-hybrid library CCNG1
T5 chain: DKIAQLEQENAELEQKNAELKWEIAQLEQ

4H949-bA = molecular target: T6, 4H949-bA; assay: two-hybrid library CCNG1
T6 chain: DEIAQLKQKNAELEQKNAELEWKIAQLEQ

4H2503-bA = molecular target: T7, 4H2503-bA; assay: two-hybrid library CCNG1
T7 chain: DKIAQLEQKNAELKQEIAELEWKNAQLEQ

4H2518-bA = molecular target: T8, 4H2518-bA; assay: two-hybrid library CCNG1
T8 chain: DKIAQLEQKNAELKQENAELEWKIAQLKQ

4H2223-bA = molecular target: T9, 4H2223-bA; assay: two-hybrid library CCNG1
T9 chain: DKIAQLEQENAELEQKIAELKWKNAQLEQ

4H2473-bA = molecular target: T10, 4H2473-bA; assay: two-hybrid library CCNG1
T10 chain: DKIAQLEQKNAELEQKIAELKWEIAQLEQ

4H3381-bA = molecular target: T11, 4H3381-bA; assay: two-hybrid library CCNG1
T11 chain: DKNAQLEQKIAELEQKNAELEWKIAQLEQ

O3-bA = molecular target: T12, O3-bA; assay: two-hybrid library CCNG1
T12 chain: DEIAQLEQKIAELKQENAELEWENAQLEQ

4H477-bA = molecular target: T13, 4H477-bA; assay: two-hybrid library CCNG1
T13 chain: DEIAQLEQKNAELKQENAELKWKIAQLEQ

4H2915-bA = molecular target: T14, 4H2915-bA; assay: two-hybrid library CCNG1
T14 chain: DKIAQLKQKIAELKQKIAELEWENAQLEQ

4H730-bA = molecular target: T15, 4H730-bA; assay: two-hybrid library CCNG1
T15 chain: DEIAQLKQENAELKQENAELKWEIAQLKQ

4H796-bA = molecular target: T16, 4H796-bA; assay: two-hybrid library CCNG1
T16 chain: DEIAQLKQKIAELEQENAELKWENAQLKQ

4H2588-bA = molecular target: T17, 4H2588-bA; assay: two-hybrid library CCNG1
T17 chain: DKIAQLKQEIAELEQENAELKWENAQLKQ

4H741-bA = molecular target: T18, 4H741-bA; assay: two-hybrid library CCNG1
T18 chain: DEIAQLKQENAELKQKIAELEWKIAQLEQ

4H2143-bA = molecular target: T19, 4H2143-bA; assay: two-hybrid library CCNG1
T19 chain: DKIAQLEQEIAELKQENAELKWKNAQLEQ

4H3041-bA = molecular target: T20, 4H3041-bA; assay: two-hybrid library CCNG1
T20 chain: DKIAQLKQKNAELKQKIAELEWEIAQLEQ

4H2162-bA = molecular target: T21, 4H2162-bA; assay: two-hybrid library CCNG1
T21 chain: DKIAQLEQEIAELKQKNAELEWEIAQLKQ

4H348-bA = molecular target: T22, 4H348-bA; assay: two-hybrid library CCNG1
T22 chain: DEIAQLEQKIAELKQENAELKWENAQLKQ

4H2717-bA = molecular target: T23, 4H2717-bA; assay: two-hybrid library CCNG1
T23 chain: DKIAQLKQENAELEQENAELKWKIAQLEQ

4H2760-bA = molecular target: T24, 4H2760-bA; assay: two-hybrid library CCNG1
T24 chain: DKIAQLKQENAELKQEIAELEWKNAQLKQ

4H2692-bA = molecular target: T25, 4H2692-bA; assay: two-hybrid library CCNG1
T25 chain: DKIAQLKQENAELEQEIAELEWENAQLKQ

4H349-bA = molecular target: T26, 4H349-bA; assay: two-hybrid library CCNG1
T26 chain: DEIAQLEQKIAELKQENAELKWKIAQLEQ

P1A-bH = molecular target: T27, P1A-bH; assay: two-hybrid library CCNG1
T27 chain: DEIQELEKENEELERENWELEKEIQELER

4H2253-bA = molecular target: T28, 4H2253-bA; assay: two-hybrid library CCNG1
T28 chain: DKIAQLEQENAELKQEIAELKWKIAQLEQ

4H492-bA = molecular target: T29, 4H492-bA; assay: two-hybrid library CCNG1
T29 chain: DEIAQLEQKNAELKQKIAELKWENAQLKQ

4H932-bA = molecular target: T30, 4H932-bA; assay: two-hybrid library CCNG1
T30 chain: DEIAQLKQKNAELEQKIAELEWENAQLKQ

4H3297-bA = molecular target: T31, 4H3297-bA; assay: two-hybrid library CCNG1
T31 chain: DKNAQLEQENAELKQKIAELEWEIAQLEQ

4H40-bA = molecular target: T32, 4H40-bA; assay: two-hybrid library CCNG1
T32 chain: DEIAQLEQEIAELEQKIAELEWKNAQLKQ

4H2839-bA = molecular target: T33, 4H2839-bA; assay: two-hybrid library CCNG1
T33 chain: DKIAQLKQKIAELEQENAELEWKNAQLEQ

4H264-bA = molecular target: T34, 4H264-bA; assay: two-hybrid library CCNG1
T34 chain: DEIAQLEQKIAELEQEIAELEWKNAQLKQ

4H2931-bA = molecular target: T35, 4H2931-bA; assay: two-hybrid library CCNG1
T35 chain: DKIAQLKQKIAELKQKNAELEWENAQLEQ

4H2585-bA = molecular target: T36, 4H2585-bA; assay: two-hybrid library CCNG1
T36 chain: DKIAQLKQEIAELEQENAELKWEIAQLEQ

4H883-bH = molecular target: T37, 4H883-bH; assay: two-hybrid library CCNG1
T37 chain: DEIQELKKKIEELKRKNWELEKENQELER

4H56-bA = molecular target: T38, 4H56-bA; assay: two-hybrid library CCNG1
T38 chain: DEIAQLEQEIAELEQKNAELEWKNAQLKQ

4H3057-bA = molecular target: T39, 4H3057-bA; assay: two-hybrid library CCNG1
T39 chain: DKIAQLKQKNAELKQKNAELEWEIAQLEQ

4H3277-bA = molecular target: T40, 4H3277-bA; assay: two-hybrid library CCNG1
T40 chain: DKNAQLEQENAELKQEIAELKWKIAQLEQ

4H3364-bA = molecular target: T41, 4H3364-bA; assay: two-hybrid library CCNG1
T41 chain: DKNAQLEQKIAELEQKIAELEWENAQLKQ

4H319-bA = molecular target: T42, 4H319-bA; assay: two-hybrid library CCNG1
T42 chain: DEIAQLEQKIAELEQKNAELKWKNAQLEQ

P4 = molecular target: T43, P4; assay: two-hybrid library CCmax; settings: mean of both orientations
T43 chain: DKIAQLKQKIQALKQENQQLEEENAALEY

P4SN = molecular target: T44, P4SN; assay: two-hybrid library CCmax; settings: mean of both orientations
T44 chain: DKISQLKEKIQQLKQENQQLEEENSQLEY

interaction score (4H2859-bA): 0.213
interaction score (4H2444-bA): -0.654
interaction score (4H235-bA): -1.89
interaction score (4H2438-bA): -0.866
interaction score (4H2233-bA): -0.508
interaction score (4H949-bA): -0.273
interaction score (4H2503-bA): -0.661
interaction score (4H2518-bA): -0.404
interaction score (4H2223-bA): -0.911
interaction score (4H2473-bA): -0.712
interaction score (4H3381-bA): -0.302
interaction score (O3-bA): 0.533
interaction score (4H477-bA): -1.41
interaction score (4H2915-bA): 0.145
interaction score (4H730-bA): -0.518
interaction score (4H796-bA): -0.0583
interaction score (4H2588-bA): 0.968
interaction score (4H741-bA): -1.07
interaction score (4H2143-bA): 0.408
interaction score (4H3041-bA): 0.0855
interaction score (4H2162-bA): -0.188
interaction score (4H348-bA): -2.35
interaction score (4H2717-bA): 0.447
interaction score (4H2760-bA): -0.549
interaction score (4H2692-bA): -0.33
interaction score (4H349-bA): -0.729
interaction score (P1A-bH): -0.594
interaction score (4H2253-bA): -0.521
interaction score (4H492-bA): -0.554
interaction score (4H932-bA): -0.976
interaction score (4H3297-bA): -0.562
interaction score (4H40-bA): -1.53
interaction score (4H2839-bA): 0.951
interaction score (4H264-bA): -1.37
interaction score (4H2931-bA): 0.604
interaction score (4H2585-bA): 0.499
interaction score (4H883-bH): -0.0863
interaction score (4H56-bA): -0.735
interaction score (4H3057-bA): -0.0999
interaction score (4H3277-bA): -0.971
interaction score (4H3364-bA): -0.25
interaction score (4H319-bA): -1.13
Binder: DKIAQLEQEIAELKQENAELKWKNAQLEQ [4H2143-bA]

interaction score (P4): 0.871
interaction score (P4SN): 1.63
Binder: DEIQQLEEEIAQLEQKNAALKEKNQALKY [P3]
